In patent publication US20220396632A1 (VERSEAU THERAPEUTICS, published 2022):

How the values were obtained:
[1] = biological target: T1, Biotin PSGL-1(105-125) peptide (human, N-terminal acetyl; C-terminal Lys-biotin); experiment: ELISA, streptavidin-bound peptide
T1 peptide: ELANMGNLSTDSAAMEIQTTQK
Procedure: (§1) A typical ELISA experiment involved binding of a single concentration or serially diluted mAb in assay buffer (3% BSA in PBS containing 0.05% Tween®20, pH 7.4) onto BSA blocked high binding microtiter plate half-wells (Corning Cat. #3690), which contained PSGL-1 protein or streptavidin-immobilized biotin peptide. After incubation for 45 min. at 37° C., the plate was washed 3 times with wash buffer (PBS containing 0.05% Tween®20, pH 7.4), and an appropriate HRP-conjugated secondary antibody added (25 ul/well) (HRP goat anti-mouse or anti-human IgG). After 45 min. incubation at 37° C., the plate was washed and antibody bound to plate-immobilized target was determined at A450 nm using HRP substrate (3,3′5,5′-tetramethylbenzidine (TMB)). For each antibody, duplicate values were averaged and assay background subtracted.

[2] = biological target: T2, Biotin PSGL-1(42-62) L54A peptide (C-terminal Lys-biotin); experiment: alanine-scan ELISA, streptavidin-immobilized biotin peptide
T2 peptide: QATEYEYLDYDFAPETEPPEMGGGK

[3] = biological target: T3, Biotin PSGL-1(42-62) L49A peptide (C-terminal Lys-biotin); experiment: as above
T3 peptide: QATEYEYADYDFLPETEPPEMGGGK

[4] = biological target: T4, Biotin PSGL-1(42-62) P55A peptide (C-terminal Lys-biotin); experiment: as above
T4 peptide: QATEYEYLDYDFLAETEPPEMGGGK

[5] = biological target: T5, Biotin PSGL-1(42-62) E56A peptide (C-terminal Lys-biotin); experiment: as above
T5 peptide: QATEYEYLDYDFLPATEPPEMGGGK

[6] = biological target: T6, 42-80 (C-terminal Lys-biotin); experiment: ELISA, streptavidin-immobilized biotin peptide, 10 nM mAb [cont.]
T6 construct: also called Biotin PSGL-1(42-80) peptide
T6 peptide: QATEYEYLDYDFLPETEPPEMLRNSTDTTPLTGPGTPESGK
Procedure: as §1

[7] = biological target: T7, Recombinant human PSGL-1(ECD)-hFc1 (R&D Systems, Cat. 3345-PS) (human, UniProt Q14242 42-305); experiment: ELISA, plate-bound target
T7 construct: Bought; Gln42-Val295 counted on AAC50061; also called PSGL-1-Fc; PSGL-1-hFc1 chimera; not shown: human IgG1 Fc, Pro100-Lys330
T7 sequence: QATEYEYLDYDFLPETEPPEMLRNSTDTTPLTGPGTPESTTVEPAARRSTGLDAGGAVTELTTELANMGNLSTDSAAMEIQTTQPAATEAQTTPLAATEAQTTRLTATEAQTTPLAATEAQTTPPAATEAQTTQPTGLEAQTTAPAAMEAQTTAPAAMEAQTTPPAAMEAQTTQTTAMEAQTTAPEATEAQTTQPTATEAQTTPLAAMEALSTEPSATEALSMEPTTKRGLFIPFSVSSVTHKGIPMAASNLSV
In short: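 Direct format: anti-PSGL-1 mAb at a single concentration (2–500 nM) or serially diluted (0.002–100 nM) on immobilized target, detected with HRP anti-IgG and TMB at A450; 45 min steps at 37° C. Capture format: coated mAb (3 ug/mL) binds biotinylated unmodified or sulfotyrosine peptide (3 nM–3 uM), detected with HRP-streptavidin.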

[8] = biological target: T8, PSGL-1 endogenously expressed on HL-60 cells (UniProt Q14242 42-412); experiment: flow cytometry on HL-60 cells; against parent 20I15
T8 construct: whole, on cells
T8 sequence (looked up): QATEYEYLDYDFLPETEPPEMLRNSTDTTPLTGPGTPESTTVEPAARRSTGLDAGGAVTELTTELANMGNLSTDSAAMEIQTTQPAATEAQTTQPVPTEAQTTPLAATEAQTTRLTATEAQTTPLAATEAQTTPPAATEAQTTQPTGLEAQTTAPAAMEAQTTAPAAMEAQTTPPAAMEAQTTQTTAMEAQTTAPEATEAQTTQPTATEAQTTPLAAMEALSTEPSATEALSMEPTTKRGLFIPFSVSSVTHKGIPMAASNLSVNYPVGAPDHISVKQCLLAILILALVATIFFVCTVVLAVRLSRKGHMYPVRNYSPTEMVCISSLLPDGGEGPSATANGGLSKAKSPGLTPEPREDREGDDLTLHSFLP
Procedure: A typical flow cytometry assay was performed by resuspending HL-60 cells in FACS buffer (5% FBS and 0.05% Sodium Azide in PBS, pH 7.2) on ice, pelleting cells by centrifugation at 500×g for 3 min, washing cells with FACS buffer, and then blocking Fc receptors on the cells with Fc block (human TruStain FcX™, BioLegend Cat. #422302) on ice for 10 min. After washing, 50,000 cells/50 ul in FACS buffer was added to each well of a 96-well round bottomed plate (Costar, Cat. #3797), and 50 ul of serially diluted (0.06 nM-1.0 uM) test or isotype control antibody was added into duplicate wells. The plate was covered and incubated on ice for 1 h. After washing, Phycoerythrin (PE) conjugated anti-human IgG secondary antibody (Abcam; Cat. #ab99825) was added to each well and the plate incubated in the dark on ice for 30 min. After washing, the cells were fixed (1% paraformaldhyde).

[9] = biological target: T9, Biotin PSGL-1(42-62) D50A peptide (C-terminal Lys-biotin); experiment: alanine-scan ELISA, streptavidin-immobilized biotin peptide
T9 peptide: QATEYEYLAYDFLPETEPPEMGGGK

[10] = biological target: T10, Biotin PSGL-1(42-62) F53A peptide (C-terminal Lys-biotin); experiment: as above
T10 peptide: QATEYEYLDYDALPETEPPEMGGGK

B1: 16E17 (antibody, V domains shown)
VH: QIQLVQSGPELKKPGETVKISCKASGYAFTTYGMSWVKQAPGKGLKWMGWINTYSGVPKYADDFKGRFAFSLETSASTAYLHINNLKNEDTATYFCGRHYYGSSYFDYWGQGTTLTVSS
VL: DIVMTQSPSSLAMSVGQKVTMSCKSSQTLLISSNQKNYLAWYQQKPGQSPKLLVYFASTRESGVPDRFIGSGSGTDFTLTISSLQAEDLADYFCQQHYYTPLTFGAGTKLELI
notes: From mouse immunisation; only variable domains given
B1 was tested, and the “fold weaker binding than to PSGL-1(ECD)-hFc1” value [1] was ~20 fold.

B2: 18F02 (antibody, V domains shown)
VH: QVQLQQPGAELVKPGASVKLSCKASGYTFTSYWMHWVKQRPGQGLEWIGMIHPNSGRTNYNEKFKSKATLTVDKSSSTAYMQLSSLTSEDSAVYYCARSDYWGQGTTLTVSS
VL: DIVMTQAAFSNPVTLGTSASISCRSSKSLLHSDGITYLYWFLQRPGQSPQLLIYRMSNLASGVPDRFSGSGSGTDFTLRISRVEAEDVGVYYCAQMLEFPRTFGGGTKLEIK
notes: as for B1
B2: binds [2]; binds [3]; binds [4]. B2: binds [5]; binds [6].

B3: 20I15 (antibody, V domains shown)
VH: EVKLVESGGGLVQPGGSLSLSCAASGFTFTDYYMSWVRQPPGKALEWLGFIRNKANGYTTEYSASVKGRFTISRDNSQSILYLQMNALRAEDSATYYCARTYLRRGYFDVWGTGTTVTVSS
VL: DIVLTQSPASLAVSLGQRATISCRASKSVSTSGYSYMHWFQQKPGQPPKLLIYLASNLESGVPARFSGSGSGTDFTLNIHPVEEEDAATYYCQHSRELPLTFGAGTKLELK
notes: From mouse immunisation; only variable domains given; also called 20115
For B3, the EC50 [7] was 0.26 nM and the “HL-60 EC50 (normalized)” value [8] was 1 fold.

B4: 43B6 (antibody, V domains shown)
VH: EVQLQQSGPDLVKPGALVKISCKASGYSFTAYYIHWVKQSHGKSLEWIGRVNPNTGGTSYNPKFKGKAILNVDKSSSTAYMELRSLTSEDSAVYYCARSGSPYYRYDDWGQGTTLTVSS
VL: ENVLTQSPAIMSASPGEKVTMTCRASSTVNSTYLHWFQQKSGASPKLWIYGSSNLASGVPARFSGSGSGTSYSLTISSVEAEDAATYYCQQYSGYPLTFGAGTTLELK
notes: Control anti-PSGL-1 mAb, recombinant; only variable domains given; also called 43B3
B4: binds [9]; binds [10].
